According to patent publication US20180362629A1 (ZOETIS BELGIUM S A, published 2018):
Read-outs that look alike come from different tables or passages of the source.

Experiments:
[1] = target: T1, recombinant canine β NGF (canine, UniProt Q29074 110-229 (pig entry)); assay: cell-based or functional assay
T1 chain: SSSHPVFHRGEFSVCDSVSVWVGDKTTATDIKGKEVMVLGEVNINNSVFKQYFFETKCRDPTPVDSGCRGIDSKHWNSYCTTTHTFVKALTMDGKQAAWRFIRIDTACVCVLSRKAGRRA

[2] = target: T1, recombinant canine β NGF; assay: cell-based or functional assay
[3] = target: T1, recombinant canine β NGF; assay: SPR (Biacore), mAb captured on goat anti-mouse IgG Fc, canine NGF injected; Expt 1
Description: (§1) A biomolecular protein interaction analysis was used to evaluate the binding kinetics of the interaction between the purified anti-NGF hybridoma antibodies and recombinant canine β NGF. The antibodies were captured using a goat anti-mouse IgG FC (10000 RU) surface which was directly immobilized to a CM5 chip using an amine coupling procedure according to the manufacturer's instructions (Biacore). A sample size of 5 μl of antibody at a concentration of 1 μg/ml was captured at 10 μl minute. Recombinant canine NGF was used as the antigen. Canine NGF was injected at 75 μl/min (concentration range: 5-0.039 nM) for mouse antibodies. The association rate was monitored for 3.3 minutes and the dissociation rate was monitored for 10 minutes. Aliquots of canine NGF were also simultaneously injected over a reference reaction CM surface to record any nonspecific binding background. The instrument sensitivity for on-rate is I×IO⁷, such that any on-rate that is faster than I×IO⁷ may not be accurately measured; the instrument sensitivity for off-rate is […], such that any off-rate that is slower than 1×10⁻⁶ may not be accurately measured. Therefore, an on-rate that is faster than 1×10⁷ is recorded as >1×10⁷ and an off-rate that is slower than 1×10⁻⁶ is recorded as <1×10⁻⁶.

[4] = target: T1, recombinant canine β NGF; assay: direct ELISA, canine NGF coated at 1 µg/ml, mAb at 0.4 µg/ml
Description: (§2) To determine if purified mouse anti-NGF mAbs bind to canine β NGF, ELISA plates were coated with 50 μl/well of canine NGF (Abbott Laboratories) at 1 μg/ml in PBS and incubated over night at 4° C. The plates were washed three times with PBS+Tween buffer. The plates were blocked with 200 μl/well of 2% milk in PBS for 1 hour at room temperature. The plates were washed three times as above. Purified antibodies were diluted to 0.4, 2, or 10 μg/ml. 50 μl of each concentration of purified antibody was added to the plates. The plates were incubated for 1 hour at room temperature. The plates were washed. 50 μl of a 5000-fold diluted goat anti-mouse IgG Fc-HRP (Thermo, catalog #31439) was added. The plates were incubated for 1 hour at room temperature. 50 μl of TMB (Invitrogen, catalog #00-2023) was added and the reaction was stopped using 2N H₂SO₄ (VWR, catalog # BDH3500-1). The absorbance at 450 nm was read on a Spectromax 2E plate reader (Molecular Devices). The results are shown in Table 9, and the numerical value indicates binding of mouse anti-NGF antibodies to canine β NGF.

[5] = target: T1, recombinant canine β NGF; assay: direct ELISA, canine NGF coated at 1 µg/ml, mAb at 10 µg/ml
Description: as §2

[6] = target: human β NGF (R&D Systems catalog #256-GF/CF) (human, UniProt P01138 122-241); assay: cell-based or functional assay
Chain of human β NGF (R&D Systems catalog #256-GF/CF) (P01138 122-241 limits assumed): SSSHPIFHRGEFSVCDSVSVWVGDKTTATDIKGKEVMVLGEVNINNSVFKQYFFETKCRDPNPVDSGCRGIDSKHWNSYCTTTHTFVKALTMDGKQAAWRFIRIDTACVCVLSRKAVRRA

[7] = target: T1, recombinant canine β NGF; assay: direct ELISA, canine NGF coated at 1 µg/ml, mAb at 2 µg/ml
Description: as §2

[8] = target: T1, recombinant canine β NGF; assay: SPR (Biacore), mAb captured on goat anti-mouse IgG Fc, canine NGF injected; Expt 2
Description: as §1

[9] = target: T1, recombinant canine β NGF; assay: SPR (Biacore), mAb captured on goat anti-mouse IgG Fc, canine NGF injected; Average
Description: as §1

[10] = target: T1, recombinant canine β NGF; assay: SPR (Biacore T100), antibody captured on goat anti-canine IgG, canine NGF injected; Expt 2
Description: (§3) Purified mouse/canine chimeric antibodies and caninized antibodies were analyzed for affinity to canine NGF using a Biacore T100 instrument. Goat anti Canine IgG (Southern Biotech) was immobilized at 5000-10000 RU on a CM5 chip using an amine coupling procedure according to the manufacturer's instructions (Biacore). […] The association rate was monitored for 5 min and the dissociation rate was monitored for 10-20 min. The chip surface was regenerated using 50-75 ul 10 mM glycine pH 1.5 at a flow rate of 50-100 ul/min. Data was analyzed using Biaevaluation T100 software version 2.0.2, software, GE Healthcare Life Sciences (Piscataway, N.J.). Overall affinity parameters established for mouse/canine chimeric antibodies is summarized in Table 22 and for caninized antibodies in Table 23. […] The overall KDs of the mouse/canine anti-NGF mAbs range from about 1300 pM to 1.6 pM. […] The overall KDs of the caninized anti-NGF mAbs range from about 42 pM to 1.2 pM.

[11] = target: T1, recombinant canine β NGF; assay: SPR (Biacore T100), antibody captured on goat anti-canine IgG, canine NGF injected; Expt 1; Expt 1
Description: as §3

[12] = target: T1, recombinant canine β NGF; assay: SPR (Biacore T100), antibody captured on goat anti-canine IgG, canine NGF injected; Average
Description: as §3

[13] = target: T1, recombinant canine β NGF; assay: cell-based or functional assay
[14] = target: T1, recombinant canine β NGF; assay: SPR (Biacore T100), antibody captured on goat anti-canine IgG, canine NGF injected; Expt 1
Description: as §3

[15] = target: T1, recombinant canine β NGF; assay: SPR (Biacore), mAb captured on goat anti-mouse IgG Fc, canine NGF injected; Expt 1; Expt 1
Description: as §1

[16] = target: T1, recombinant canine β NGF; assay: SPR (Biacore), mAb captured on goat anti-mouse IgG Fc, canine NGF injected; Average; Average
Description: as §1

B1: PR-1254980 (antibody, mouse IgG1, V domains shown)
VH: EVQLQQSGAELVKPGASVKLSCTASGFNIKDTYIYWVKQRPEQGLEWIGRIDPANGNTIYASKFQGKATITADTSSNTAYMQLSSLTSGDTAVYYCAGYGYYAYWGQGTTLTVSS
VL: DVVLTQTPLSLPVNIGDQASISCKSTKSLLNGDGFTYLDWYLQKPGQSPQLLIYLVSNRFSGVPDRFSGSGSGTDFTLKISRVEAEDLGVYYCFESNYLFTFGSGTKLEMKR
notes: also called 23F1; ML129-23F1.4G3
[1]
  IC50, canine NGF-induced TF-1 cell proliferation (70 pM canine NGF): 0.343 nM
[2]
  PathHunter IC50 (441 pM canine NGF): 0.381 nM
  SureFire pERK IC50 (128 pM canine β NGF): 0.0137 nM
[3]
  Kd: < 23.7 pM
  koff: 0.000237 s⁻¹
  kon: > 1e+07 M⁻¹ s⁻¹
[4]
  absorbance at 450 nm: 0.168 A450
[5]
  absorbance at 450 nm: 0.491 A450
[6]
  PathHunter % of max signal, supernatant 100-fold: 5%
[7]
  absorbance at 450 nm: 0.334 A450
[8]
  Kd: < 22.5 pM
  koff: 0.000225 s⁻¹
  kon: > 1e+07 M⁻¹ s⁻¹
[9]
  Kd: < 23.1 pM
  koff: 0.000231 s⁻¹
  kon: > 1e+07 M⁻¹ s⁻¹

B2: 82.3 Canine IgG1/k (antibody, V domains shown)
VH: EVQLQESGPGLVKPSQTLSLTCTVSGFSLTGYNINWVRQRPDRGLEWLGMIWGYGDTDYNSALKSRLSISKDNTKSQVFLQLTSTTTEDTAVYYCARDHYGGNDWYFDVWGQGTLVTVSS
VL: DIQMTQTPLSLSASPGESASITCRASQDITNYLNWYRQKPGQSVKLLIYYTSRLHSGVPSRFSGSGSGTDYSLRISRVEDEDAGLYFCQQGKTLPRTFGQGTKLEIKR
notes: The variable/constant junction was not checked; also called PR-1313519; PR-13113519
[10]
  Kd: 1.6 pM
  koff: 1.3e-05 s⁻¹
  kon: 8.5e+06 M⁻¹ s⁻¹
[11]
  koff: 2e-05 s⁻¹
[12]
  Kd: 2 pM
  koff: 1.7e-05 s⁻¹
  kon: 8.4e+06 M⁻¹ s⁻¹
[13]
  IC50, canine NGF-induced TF-1 cell proliferation (70 pM canine NGF): 0.017 nM
[14]
  Kd: 2.4 pM
  kon: 8.2e+06 M⁻¹ s⁻¹

B3: PR-1254982 (antibody, mouse IgG1, V domains shown)
VH: QVQLKESGPGLVAPSQSLSITCTVSGFSLTGYNINWVRQPPGKGLEWLGMIWGYGDTDYNSALKSRLSISKDNSKSQVFLKMNSLQTDDTARYYCARDHYGGNDWYFDVWGTGTTVTVSS
VL: DIQMTQTTSSLSASLGDRVTITCRASQDITNYLNWYQQKPDGTVKLLIYYTSRLHSGVPSRFSGSGSGTDYSLTISNLDQEDIATYFCQQGKTLPRTFGGGTKLEIKR
notes: also called 3F7; ML130-3F7.4A8
[15]
  koff: < 1e-06 s⁻¹
[1]
  IC50, canine NGF-induced TF-1 cell proliferation (70 pM canine NGF): 0.025 nM
[2]
  PathHunter IC50 (441 pM canine NGF): 0.15 nM
  SureFire pERK IC50 (128 pM canine β NGF): 0.0058 nM
[3]
  Kd: < 0.1 pM
  kon: > 1e+07 M⁻¹ s⁻¹
[16]
  koff: < 1e-06 s⁻¹
[4]
  absorbance at 450 nm: 0.095 A450
[5]
  absorbance at 450 nm: 0.208 A450
[7]
  absorbance at 450 nm: 0.142 A450
[8]
  Kd: < 0.1 pM
  koff: < 1e-06 s⁻¹
  kon: > 1e+07 M⁻¹ s⁻¹
[9]
  Kd: < 0.1 pM
  kon: > 1e+07 M⁻¹ s⁻¹
